Results as given in article PMC4081072, “Structure and semi-sequence-specific RNA binding of Nrd1”.

Columns and labels:
Conditions in all cases: protein: recombinant; tags: C-terminal His6; label: 5' fluorescein or TAMRA (FA); unlabeled (NMR)
Nrd1 307-491 K380A = molecular target: T1, Nrd1 307-491 K380A (Saccharomyces cerevisiae, UniProt P53617 307-491, K380A); test: fluorescence anisotropy; text says binding abolished; FA: 10 nM RNA, 50 mM sodium phosphate pH 8, 150 mM NaCl, 10 mM beta-mercaptoethanol, 20 C (protein stock in 300 mM NaCl); NMR: same buffer with 300 mM NaCl, 20
T1 sequence: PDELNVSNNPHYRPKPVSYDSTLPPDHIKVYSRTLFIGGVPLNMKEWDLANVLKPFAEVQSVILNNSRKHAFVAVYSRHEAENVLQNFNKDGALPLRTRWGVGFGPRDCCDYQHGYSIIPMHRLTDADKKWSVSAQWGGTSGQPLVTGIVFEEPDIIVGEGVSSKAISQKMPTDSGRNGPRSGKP

Nrd1 307-491 Y382A = molecular target: T2, Nrd1 307-491 Y382A (Saccharomyces cerevisiae, UniProt P53617 307-491, Y382A); test: fluorescence anisotropy; FA: 10 nM RNA, 50 mM sodium phosphate pH 8, 150 mM NaCl, 10 mM beta-mercaptoethanol, 20 C (protein stock in 300 mM NaCl); NMR: same buffer with 300 mM NaCl, 20
T2 sequence: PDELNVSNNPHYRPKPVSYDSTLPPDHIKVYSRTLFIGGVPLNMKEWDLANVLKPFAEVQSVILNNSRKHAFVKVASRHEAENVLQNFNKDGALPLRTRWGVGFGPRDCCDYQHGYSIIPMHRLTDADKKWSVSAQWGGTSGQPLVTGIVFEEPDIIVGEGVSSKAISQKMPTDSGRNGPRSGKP

Nrd1 307-491 G344A = molecular target: T3, Nrd1 307-491 G344A (Saccharomyces cerevisiae, UniProt P53617 307-491, G344A); test: as above
T3 sequence: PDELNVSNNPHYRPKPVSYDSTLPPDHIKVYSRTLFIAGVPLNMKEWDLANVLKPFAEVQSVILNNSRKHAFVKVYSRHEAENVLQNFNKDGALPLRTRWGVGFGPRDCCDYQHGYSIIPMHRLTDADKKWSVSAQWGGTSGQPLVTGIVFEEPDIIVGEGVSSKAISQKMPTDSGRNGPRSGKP

Nrd1 307-491 D417A = molecular target: T4, Nrd1 307-491 D417A (Saccharomyces cerevisiae, UniProt P53617 307-491, D417A); test: as above
T4 sequence: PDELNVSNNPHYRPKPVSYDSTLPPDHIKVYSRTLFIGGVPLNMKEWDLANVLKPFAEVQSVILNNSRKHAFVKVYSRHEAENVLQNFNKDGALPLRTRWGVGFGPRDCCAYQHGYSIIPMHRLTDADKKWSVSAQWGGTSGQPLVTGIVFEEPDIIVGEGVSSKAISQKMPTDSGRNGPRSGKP

Nrd1 307-491 G409A = molecular target: T5, Nrd1 307-491 G409A (Saccharomyces cerevisiae, UniProt P53617 307-491, G409A); test: as above
T5 sequence: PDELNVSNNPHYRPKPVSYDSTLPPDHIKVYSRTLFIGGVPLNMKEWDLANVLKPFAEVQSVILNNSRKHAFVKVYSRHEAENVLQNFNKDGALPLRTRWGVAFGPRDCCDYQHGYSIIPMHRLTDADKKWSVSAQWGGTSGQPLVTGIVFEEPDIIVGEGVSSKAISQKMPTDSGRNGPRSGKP

Nrd1 307-491 R429D = molecular target: T6, Nrd1 307-491 R429D (Saccharomyces cerevisiae, UniProt P53617 307-491, R429D); test: as above
T6 sequence: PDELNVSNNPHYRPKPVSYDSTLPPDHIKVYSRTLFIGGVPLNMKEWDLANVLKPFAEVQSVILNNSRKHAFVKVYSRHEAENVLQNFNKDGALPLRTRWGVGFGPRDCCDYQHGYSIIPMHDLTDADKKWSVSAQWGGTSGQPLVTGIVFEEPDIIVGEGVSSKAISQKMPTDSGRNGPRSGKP

Nrd1 307-491 WT = molecular target: T7, Nrd1 307-491 WT (Saccharomyces cerevisiae, UniProt P53617 307-491); test: as above
T7 sequence: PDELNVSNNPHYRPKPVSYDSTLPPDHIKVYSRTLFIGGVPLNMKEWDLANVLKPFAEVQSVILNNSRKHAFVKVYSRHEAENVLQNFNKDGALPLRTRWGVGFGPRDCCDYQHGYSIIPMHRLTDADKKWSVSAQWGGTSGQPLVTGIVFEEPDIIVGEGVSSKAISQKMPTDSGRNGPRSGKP

Nrd1 307-491 G407A = molecular target: T8, Nrd1 307-491 G407A (Saccharomyces cerevisiae, UniProt P53617 307-491, G407A); test: as above
T8 sequence: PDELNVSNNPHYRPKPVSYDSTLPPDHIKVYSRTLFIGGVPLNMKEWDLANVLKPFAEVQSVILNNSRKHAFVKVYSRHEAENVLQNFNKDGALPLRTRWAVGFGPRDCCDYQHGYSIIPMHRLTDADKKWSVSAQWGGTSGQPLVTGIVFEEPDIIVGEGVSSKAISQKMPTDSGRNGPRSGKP

In the case of GUAA (ssRNA), the Kd (Nrd1 307-491 K380A) is reported as 442 ± 24.7 µM, the Kd (Nrd1 307-491 Y382A) is reported as 32.1 ± 1.3 µM and the Kd (Nrd1 307-491 G344A) is reported as 80.8 ± 2.2 µM. It also gave a Kd (Nrd1 307-491 D417A) of 17.9 ± 2 µM, a Kd (Nrd1 307-491 G409A) of 157 ± 7.7 µM and a Kd (Nrd1 307-491 R429D) of 24.1 ± 1.7 µM. For the same binder, the Kd (Nrd1 307-491 WT) was 10.1 ± 0.8 µM and the Kd (Nrd1 307-491 G407A) was 13.9 ± 1.7 µM.
